Where “and” joins values, the source holds several entries; their conditions need not be identical. Equal entries are not always repeated.
Conditions: pH 7, CD, transition: 2, reversible: yes, whole UniProt chain shown; for denaturant midpoint (higher = more stable): 25 °C, GdnHCl; for Tm: Thermal
[1] = Rattus norvegicus, potassium phosphate buffer

Protein	denaturant midpoint (higher = more stable) [1]	Tm [1] [°C]	denaturant midpoint (higher = more stable) (Bos taurus, MOPS buffer)	Tm (Bos taurus, MOPS buffer) [°C]
Cytochrome b5 type B wild type, P04166 (protein) MATPEASGSGRNGQGSDPAVTYYRLEEVAKRNTAEETWMVIHGRVYDITRFLSEHPGGEEVLLEQAGADATESFEDVGHSPDAREMLKQYYIGDVHPNDLKPKDGDKDPSKNNSCQSSWAYWIVPIVGAILIGFLYRHFWADSKSS	4.09 M and 4.03 M	87	–	–
Cytochrome b5 wild type, P00171 (protein) MAEESSKAVKYYTLEEIQKHNNSKSTWLILHYKVYDLTKFLEEHPGGEEVLREQAGGDATENFEDVGHSTDARELSKTFIIGELHPDDRSKITKPSESIITTIDSNPSWWTNWLIPAISALFVALIYHLYTSEN	–	–	2.99 M and 3.05 M	73.1

— FireProtDB (doi:10.1021/bi010636i)
